This note sets out measurements from the Immune Epitope Database (IEDB).

One experiment deals with HLA-B*40:01. The experiment in a line: IEDB peptide-MHC binding, purified MHC/competitive/radioactivity; filed as Kd, often an IC50 or EC50 that approximates it; ≥ and ≤ were set here for values at or beyond the usual limits of such assays.
In experiment [1] the target is HLA-B*15:01. The experiment in a line: IEDB peptide-MHC binding, purified MHC/competitive/fluorescence; filed as Kd, often an IC50 or EC50 that approximates it; ≥ and ≤ were set here for values at or beyond the usual limits of such assays.
The next experiment addresses HLA-A*32:01. As to the kind of experiment: IEDB peptide-MHC binding, purified MHC/competitive/radioactivity; filed as Kd, often an IC50 or EC50 that approximates it; ≥ and ≤ were set here for values at or beyond the usual limits of such assays.
The target in a further experiment is HLA-A*01:01. Described as above.
The next experiment has as its target HLA-A*26:01. The experiment is described as above.
The next experiment deals with HLA-A*30:01. The description is as above.
In another experiment the target is HLA-A*30:02. The experiment is described as above.
In a further experiment the target is HLA-A*29:02. The experiment is described as above.
The target in a further experiment is HLA-B*44:03. Described as above.
The next experiment deals with HLA-B*08:01. The description is as above.
The target of a further experiment is HLA-A*02:01. As to the kind of experiment: IEDB peptide-MHC binding, purified MHC/competitive/fluorescence; filed as Kd, often an IC50 or EC50 that approximates it; ≥ and ≤ were set here for values at or beyond the usual limits of such assays. To be noted: source organism: Escherichia coli 536.
The next experiment deals with HLA-B*51:01. The description is as above. To be noted: source organism: Escherichia coli 536.
A further experiment concerns the target HLA-B*44:02. The experiment in a line: IEDB peptide-MHC binding, purified MHC/competitive/radioactivity; filed as Kd, often an IC50 or EC50 that approximates it; ≥ and ≤ were set here for values at or beyond the usual limits of such assays.
Another experiment concerns the target HLA-B*27:05. The experiment in a line: IEDB peptide-MHC binding, purified MHC/direct/fluorescence; filed as Kd, often an IC50 or EC50 that approximates it; ≥ and ≤ were set here for values at or beyond the usual limits of such assays. To be noted: source organism: Mammarenavirus juninense.
A further experiment deals with HLA-B*46:01. The experiment is described as above.
Another experiment addresses HLA-A*24:02. The experiment in a line: IEDB peptide-MHC binding, purified MHC/competitive/radioactivity; filed as Kd, often an IC50 or EC50 that approximates it; ≥ and ≤ were set here for values at or beyond the usual limits of such assays.
Another experiment has as its target HLA-A*23:01. The description is as above.
For experiment [2], the target named is HLA-B*15:01. The experiment in a line: IEDB peptide-MHC binding, purified MHC/direct/fluorescence; filed as Kd, often an IC50 or EC50 that approximates it; ≥ and ≤ were set here for values at or beyond the usual limits of such assays. To be noted: source organism: Yellow fever virus 1899/81.
[3] abbreviates: source organism: Dengue virus 2 Jamaica/1409/1983.
Where [4] appears, read: source organism: Vaccinia virus WR.
Setting [5] is: source organism: Mammarenavirus whitewaterense.
Setting [6] is: source organism: Mammarenavirus choriomeningitidis.
The mark [7] stands for this setting: source organism: Dengue virus 4 Philippines/H241/1956.
The mark [8] stands for this setting: source organism: Dengue virus 1 Brazil/97-11/1997.
Where [9] appears, read: source organism: Dengue virus 3 Martinique/1243/1999.
Setting [10] is: source organism: Lymphocytic choriomeningitis virus (strain Armstrong).
[11] abbreviates: source organism: SARS coronavirus Tor2.

As a reminder, the Kd is the free concentration of one partner at which half of the binding sites on the other are occupied at equilibrium, for simple one-to-one binding. As to WELVDRERNL, the Kd with HLA-B*40:01 (setting [3]) came to 0.116 µM.

As to FSQEEAKLF, the equilibrium dissociation constant (Kd) with HLA-B*15:01 [1] (source organism: Yersinia pestis Antiqua) was found to be 2.48 µM.

Turning to KLFNIAQRI, the Kd with HLA-A*32:01 (setting [4]) stood at 0.00158 µM.

For the sequence ATTNAHCALL, the Kd was 7.67 µM with HLA-A*01:01 (setting [5]); not below 69.9 µM in the experiment with HLA-A*32:01 (setting [5]); not below 69.7 µM in the experiment with HLA-A*26:01 (setting [5]); 2.35 µM in the experiment with HLA-A*30:01 (setting [5]); 6.04 µM with HLA-A*30:02 (setting [5]); not below 71.4 µM in the experiment with HLA-A*29:02 (setting [5]).

Turning to TTDVKAAVI, the Kd with HLA-A*01:01 (setting [6]) was 0.955 µM; in the experiment with HLA-A*32:01 (setting [6]) it was not below 77.8 µM; in the experiment with HLA-A*26:01 (setting [6]), not below 77.9 µM; with HLA-A*30:01 (setting [6]), not below 72.2 µM; with HLA-A*30:02 (setting [6]) it was not below 23.7 µM; in the experiment with HLA-A*29:02 (setting [6]), 10.4 µM.

Take NEGIMAVGL: the dissociation constant Kd with HLA-B*40:01 (setting [7]) turned out to be 2.26 µM; with HLA-B*44:03 (setting [7]), 1.54 µM.

Take FRRLRKGSI: in the experiment with HLA-B*08:01 (setting [4]), the Kd was found to be 0.00301 µM.

For FSSQALVLI, the Kd with HLA-A*02:01 is 0.692 µM; with HLA-B*51:01 it was not below 20 µM; with HLA-B*15:01 [1] (source organism: Escherichia coli 536), not below 20 µM.

As for EVKTCIWPKS, the Kd with HLA-A*32:01 (setting [8]) was not below 49.5 µM.

In the case of YLMLLFAAM, the Kd with HLA-B*08:01 (setting [4]) stood at 0.138 µM.

Turning to LEKASLIEV, the Kd with HLA-B*40:01 (setting [9]) was 1.03 µM; with HLA-B*44:02 (setting [9]) it was not below 77.9 µM.

LMTGTLAVFL: the Kd in the experiment with HLA-B*08:01 (setting [8]) worked out at 1.7 µM.

In the experiment with HLA-B*27:05, RRGLSQFTQ yielded a Kd not below 20 µM.

Consider SLLRKFLYC, for which the Kd with HLA-B*08:01 (setting [4]) amounted to 0.701 µM.

Turning to LGKKKTPRM, the equilibrium dissociation constant (Kd) with HLA-B*08:01 (setting [3]) turned out to be 0.378 µM.

Regarding YLLSLFSTL, the Kd in the experiment with HLA-B*08:01 (setting [4]) was 0.00402 µM.

Take LNRRRRTAG: the Kd in the experiment with HLA-B*08:01 (setting [3]) is 0.739 µM.

On to YLRTKPASA, for which the Kd with HLA-B*08:01 (setting [4]) was found to be 0.00148 µM.

Turning to EKEENLVNSL, in the experiment with HLA-B*08:01 (setting [3]), the Kd was 1.84 µM.

In the case of IENLEYTVVV, the Kd in the experiment with HLA-B*40:01 (setting [7]) is 0.157 µM.

Regarding LMGFRNSAL, the Kd in the experiment with HLA-B*08:01 (setting [4]) turned out to be 1.1 µM.

On to GVIMPNGSY, for which, in the experiment with HLA-B*46:01 (source organism: West Nile virus), the Kd was found to be 1.99 µM.

Take NEMGLLETTK: the Kd was 1.69 µM with HLA-B*44:02 (setting [8]) and not below 20.7 µM with HLA-B*44:03 (setting [8]).

For VCLSGEGWPY, the Kd in the experiment with HLA-A*32:01 (setting [10]) was not below 26.1 µM; in the experiment with HLA-A*24:02 (setting [10]), not below 70.3 µM; with HLA-A*23:01 (setting [10]), not below 70 µM; in the experiment with HLA-A*26:01 (setting [10]), not below 69.7 µM; in the experiment with HLA-A*30:01 (setting [10]), not below 33.2 µM.

With AIAVASGLLW, the Kd worked out at 8.8 µM with HLA-B*44:02 (setting [7]) and 0.908 µM in the experiment with HLA-B*44:03 (setting [7]).

Consider VYMDAVFEY, for which the Kd in the experiment with HLA-B*15:01 [2] was 0.6 µM; with HLA-B*46:01 (source organism: Yellow fever virus 1899/81), not below 20 µM.

On to ELSPRWYFY, for which the Kd was not below 35 µM with HLA-A*01:01 (setting [11]); 13.2 µM with HLA-A*24:02 (setting [11]); 10.6 µM in the experiment with HLA-A*23:01 (setting [11]); 0.0157 µM in the experiment with HLA-A*26:01 (setting [11]); 0.79 µM with HLA-A*30:02 (setting [11]); 0.0703 µM in the experiment with HLA-A*29:02 (setting [11]).

Turning to YSNRNRFLY, the Kd with HLA-A*01:01 (setting [11]) came to 0.0029 µM; with HLA-A*24:02 (setting [11]), 3.04 µM; in the experiment with HLA-A*23:01 (setting [11]), 5.69 µM; in the experiment with HLA-A*26:01 (setting [11]) it was 1.47 µM; with HLA-A*30:02 (setting [11]), 0.000453 µM; in the experiment with HLA-A*29:02 (setting [11]), 0.000588 µM.
